Reference: patent US20230151105A1 (HUTCHISON MEDIPHARMA, published 2023)

T1: human OX40 expressed on the cell surface (human, UniProt P43489 29-277)
T1 sequence (looked up): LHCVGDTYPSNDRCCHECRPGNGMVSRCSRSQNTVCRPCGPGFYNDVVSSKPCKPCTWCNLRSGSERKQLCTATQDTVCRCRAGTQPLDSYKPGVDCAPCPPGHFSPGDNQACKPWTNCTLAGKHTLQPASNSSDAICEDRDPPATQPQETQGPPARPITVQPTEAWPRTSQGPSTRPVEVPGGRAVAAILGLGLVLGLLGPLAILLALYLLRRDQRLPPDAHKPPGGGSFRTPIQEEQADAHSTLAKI

T2: recombinant human OX40-His protein (R & D Systems, Cat 9969-OX) (human, UniProt P43489 29-214)
T2 construct: extracellular domain; Bought protein; also called human OX40 protein; human OX40-His fusion protein; not shown: His tag
T2 sequence (looked up): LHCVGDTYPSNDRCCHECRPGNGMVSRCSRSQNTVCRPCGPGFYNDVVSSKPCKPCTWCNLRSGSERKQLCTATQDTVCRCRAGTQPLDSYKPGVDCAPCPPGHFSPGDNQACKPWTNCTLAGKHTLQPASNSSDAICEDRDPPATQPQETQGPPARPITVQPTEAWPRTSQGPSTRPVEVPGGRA

T3: recombinant OX40-Fc protein (R & D, Cat 3388-OX) (human, UniProt P43489 29-214)
T3 construct: extracellular domain; also called OX40 (R & D systems, Cat 3388-OX); not shown: Fc tag
T3 sequence (looked up): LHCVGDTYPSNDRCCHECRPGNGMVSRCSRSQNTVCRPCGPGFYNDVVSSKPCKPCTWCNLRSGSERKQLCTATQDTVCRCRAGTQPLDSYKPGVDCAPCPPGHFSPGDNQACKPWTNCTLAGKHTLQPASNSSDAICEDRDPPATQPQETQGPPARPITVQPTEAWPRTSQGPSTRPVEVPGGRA


Assays:
[1] = biological target: T1, human OX40 expressed on the cell surface; experiment: cell-based or functional assay
[2] = biological target: T1, human OX40 expressed on the cell surface; experiment: FACS on activated human CD4+ T cells
Description: (§1) Primary human PBMC were isolated from whole blood obtained from healthy donors through density gradient centrifugation with Ficoll-Paque PLUS (GE Healthcare, Cat 17-1440-02). After centrifuge, the cells in the middle layer were collected and washed 3 times with PBS to obtain PBMC. Then, human T cells were isolated with Pan T Cell Isolation Kit (Miltenyi biotec, Cat 130-096-535) by magnetic beads isolation method according to the protocol recommended by the instructions. T cells were resuspended in RPMI 1640 (containing 10% FBS and penicillin/streptomycin bi-antibiotics) medium, and PHA-L and IL-2 (or Con-A and hIL-2) were added for 2-day stimulation to induce the expression of OX40 from the T cells. The activated T cells were washed once with PBS containing 2% FBS, the serially diluted OX40 antibodies were added, and incubated at 4° C. for 30 minutes. The cells were washed twice with PBS containing 2% FBS, PE-labeled anti-human IgG secondary antibody (Biolegend, Cat 409304) (or PE-labeled anti-mouse IgG secondary antibody (Biolegend, Cat 405307)) and APC-CY7 labeled antibody human CD4 antibody (Biolegend, Cat 300518) were added. The binding of OX40 antibody on the surface of CD4 positive T cells was detected by BD Cantoll flow cytometry. A curve was fitted according to the median fluorescence intensity value, and EC₅₀ was calculated.

[3] = biological target: T1, human OX40 expressed on the cell surface; experiment: cell-based or functional assay; remark: listed apart in the source
[4] = biological target: T2, recombinant human OX40-His protein (R & …); experiment: SPR (Biacore), antibody captured on anti-human Fc CM5 chip, human OX40-His as analyte, 1:1 Langmuir
Description: Biacore is used to determine the binding kinetic parameters by measuring surface plasmon resonance (SPR). This technology was used to detect the microscopic rate constants of the binding (kₐ) and dissociation (kd) of an antibody and an antigen. Based on the kₐ and the kd values, the affinity value of the antibody to the antigen is obtained. Both Biacore instrument and reagents were purchased from GE Healthcare. In particular, anti-human Fc antibody was immobilized on a CM5 sensor chip. The supernatants containing expressed antibody or the purified antibodies were diluted in a mobile phase buffer (10 mM HEPES, 150 mM NaCl, 3 mM EDTA, 0.05% Tween-20, pH 7.4), and flowed through the CM5 chip coated with anti-human Fc antibody. Then the serially diluted human OX40-His fusion proteins flowed through the detection chip to measure the binding of the antigen to the antibody, and then the mobile phase buffer flowed through the chip to detect the dissociation of the antigen from the antibody. The binding and dissociation signal data of the antigen and the antibody were collected at different concentrations, and fitted to the 1:1 Langmuir model to calculate the affinity between the antigen and the antibody.

[5] = biological target: T1, human OX40 expressed on the cell surface; experiment: FACS on activated human T cells
Description: as §1
According to the detection method described in the preceding Example 1.2, FACS was used to analyze the binding activities of humanized antibodies to OX40 on activated human T cells.

[6] = biological target: T1, human OX40 expressed on the cell surface; experiment: cell-based or functional assay; remark: listed apart in the source
[7] = biological target: T3, recombinant OX40-Fc protein (R & D, Cat …); experiment: blocking ELISA: OX40-Fc coated, antibody titrated, competitor OX40L at 50 ng/ml
Description: The plate was washed 3 times with PBS containing 0.5% Tween-20 to remove unbound proteins, then the plates were blocked by adding PBS containing 1% BSA at 200 μl/well, at room temperature for 1 h. After washing the plate 3 times with PBS containing 0.5% Tween-20, the serially diluted anti-OX40 antibodies were added to the 96-well plate at 100 μl/well, and incubated for 1 h at room temperature. The plate was washed 3 times with PBS containing 0.5% Tween-20. […] The plate was washed. 200 μl TMB color developing solution was added to each well for color development, and the reaction was stopped with 2N H2504. On a microplate reader, the O.D. value was detected at 450 nm, and the background O.D. value was measured at 570 nm.

[8] = biological target: T2, recombinant human OX40-His protein (R & …); experiment: ELISA, human OX40-His coated, anti-mouse IgG-HRP detection
Description: The recombinant human OX40-His (R & D, Cat 9969-OX) was coated onto 96-well plates. After blocking, serially diluted mouse serum or antibodies were added and incubated. After washing plates with PBS containing 0.5% Tween20, HRP-labeled anti-mouse IgG secondary antibody was added for incubation, and the plates were developed with […], and the OD450 value was read via a microplate reader.

Binder | EC50 [2] [nM] | Enhancement of IFNγ production by activated human T cells (ELISA), EC50 [3] [nM] | Ratio of IFNγ maximum effect to background (in fold) [3] [fold] | EC50 [5] [nM] | Agonistic activity on T cells, IFNγ release, EC50 [6] [nM] | maximum IFNγ concentration [6] [ng/mL] | other results
11D4 (antibody, V domains shown) VH: EVQLVESGGGLVQPGGSLRLSCAASGFTFSSYSMNWVRQAPGKGLEWVSYISSSSSTIDYADSVKGRFTISRDNAKNSLYLQMNSLRDEDTAVYYCARESGWYLFDYWGQGTLVTVSS VL: DIQMTQSPSSLSASVGDRVTITCRASQGISSWLAWYQQKPEKAPKSLIYAASSLQSGVPSRFSGSGSGTDFTLTISSLQPEDFATYYCQQYNSYPPTFGGGTKVEIKR | 0.4 | 8 | 5.6 | – | – | – | T-cell agonistic activity, IFNγ released by T cells, EC50 [1]: 5.3 nM; Kd [4]: 2.51 nM; koff [4]: 0.000435 s⁻¹; kon [4]: 173000 M⁻¹ s⁻¹
OX40mAb24 (antibody, V domains shown) VH: QVQLQESGPGLVKPSQTLSLTCAVYGGSFSSGYWNWIRKHPGKGLEYIGYISYNGITYHNPSLKSRITINRDTSKNQYSLQLNSVTPEDTAVYYCARYKYDYDGGHAMDYWGQGTLVTVSS VL: DIQMTQSPSSLSASVGDRVTITCRASQDISNYLNWYQQKPGKAPKLLIYYTSKLHSGVPSRFSGSGSGTDYTLTISSLQPEDFATYYCQQGSALPWTFGQGTKVEIKR | 1.3 | 14.7 | 9.4 | 6.23 | 7.1 | 27400 | –
Hu38E11-v1 (antibody, human IgG1, V domains shown, also called Hu38E11-vl) VH: QVQLVQSGAEVKKPGASVKVSCKASGYTFTSYWVDWVRQAPGQGLEWIGNIYPSDSETHYNQKFKDRVTMTVDTSTSTVYMELSSLRSEDTAVYYCARSYGYYGTWFAYWGQGTLVTVSS VL: DIVMTQSPDSLAVSLGERATINCRASESVDSSGNSFMHWYQQKPGQPPKLLIYRASNLESGIPDRFSGSGSGTDFTLTISSVQAEDVAVYYCQQSNEDPWTFGGGTKLEIK | – | – | – | 5.03 | 0.7 | 21600 | –
Hu38E11 (IgG2) (antibody) heavy: QVQLVQSGAEVKKPGASVKVSCKASGYTFTSYWVDWVRQAPGQGLEWMGNIYPSDSETHYNQKFKDRVTMTRDTSTSTVYMELSSLRSEDTAVYYCARSYGYYGTWFAYWGQGTLVTVSSASTKGPSVFPLAPCSRSTSESTAALGCLVKDYFPEPVTVSWNSGALTSGVHTFPAVLQSSGLYSLSSVVTVPSSNFGTQTYTCNVDHKPSNTKVDKTVERKCCVECPPCPAPPVAGPSVFLFPPKPKDTLMISRTPEVTCVVVDVSHEDPEVQFNWYVDGVEVHNAKTKPREEQFNSTFRVVSVLTVVHQDWLNGKEYKCKVSNKGLPAPIEKTISKTKGQPREPQVYTLPPSREEMTKNQVSLTCLVKGFYPSDIAVEWESNGQPENNYKTTPPMLDSDGSFFLYSKLTVDKSRWQQGNVFSCSVMHEALHNHYTQKSLSLSPGK VL: DIVMTQSPDSLAVSLGERATINCRASESVDSSGNSFMHWYQQKPGQPPKLLIYRASNLESGVPDRFSGSGSGTDFTLTISSLQAEDVAVYYCQQSNEDPWTFGGGTKLEIK | – | – | – | – | – | – | T-cell agonistic activity, IFNγ released by T cells, EC50 [1]: 1.6 nM
Hu38E11 (IgG1 N297A) (antibody, name in EU numbering, Hu38E11 variable regions with a human IgG1 constant region carrying N297A; also called Hu38E11 (hIgG1 N297A)) heavy: not shown VL: DIVMTQSPDSLAVSLGERATINCRASESVDSSGNSFMHWYQQKPGQPPKLLIYRASNLESGVPDRFSGSGSGTDFTLTISSLQAEDVAVYYCQQSNEDPWTFGGGTKLEIK | – | – | – | – | – | – | IC50 [7]: ~0.3 nM; blocking of OX40L-mediated T cell activation, IFNγ secretion, IC50 [1]: 0.3 nM; inhibition of the expression of luciferase reporter gene under the control of NF-κB, IC50 [1]: 0.2 nM
humanized 38E11 antibody Hu38E11 (IgG1) (antibody) heavy: not shown VL: DIVMTQSPDSLAVSLGERATINCRASESVDSSGNSFMHWYQQKPGQPPKLLIYRASNLESGVPDRFSGSGSGTDFTLTISSLQAEDVAVYYCQQSNEDPWTFGGGTKLEIK | – | – | – | 4.56 | 2.4 | 24800 | expression of the luciferase reporter gene under the control of NF-κB, EC50 [1]: 0.7 nM; Kd [4]: 2.36 nM; koff [4]: 0.000394 s⁻¹; kon [4]: 167000 M⁻¹ s⁻¹
Hu38E11-v3 (antibody, human IgG1, V domains shown) VH: QVQLVQSGAEVKKPGASVKVSCKASGYTFTSYWVDWVRQAPGQGLEWMGNIYPSDSETHYNQKFKDRVTMTRDTSTSTVYMELSSLRSEDTAVYYCARSYGYYGTWFAYWGQGTLVTVSS VL: DIVMTQSPDSLAVSLGERATINCRASESVDSSGNSFMHWYQQKPGQPPKLLIYRASNLESGIPDRFSGSGSGTDFTLTISSVQAEDVAVYYCQQSNEDPWTFGGGTKLEIK | – | – | – | 3.48 | 1.7 | 22500 | –
Hu38E11-v2 (antibody, human IgG1, V domains shown) VH: QVQLVQSGAEVKKPGASVKVSCKASGYTFTSYWVDWVRQAPGQGLEWIGNIYPSDSETHYNQKFKDRVTMTVDTSTSTAYMELSSLRSEDSAVYYCARSYGYYGTWFAYWGQGTLVTVSS VL: DIVMTQSPDSLAVSLGERATINCRASESVDSSGNSFMHWYQQKPGQPPKLLIYRASNLESGVPDRFSGSGSGTDFTLTISSLQAEDVAVYYCQQSNEDPWTFGGGTKLEIK | – | – | – | 3.35 | 1 | 22500 | –
Hu38E11-v4 (antibody, human IgG1, V domains shown) VH: QVQLVQSGAEVKKPGASVKVSCKASGYTFTSYWVDWVRQAPGQGLEWIGNIYPSDSETHYNQKFKDRVTMTVDTSTSTAYMELSSLRSEDSAVYYCARSYGYYGTWFAYWGQGTLVTVSS VL: DIVMTQSPDSLAVSLGERATINCRASESVDSSGNSFMHWYQQKPGQPPKLLIYRASNLESGIPDRFSGSGSGTDFTLTISSLQAEDVAVYYCQQSNEDPWTFGGGTKLEIK | – | – | – | 3.02 | 0.9 | 21700 | –
hybridoma-derived antibody 38E11 (antibody, V domains shown, Murine antibody purified from hybridoma supernatant by protein A) VH: QVQLQQPGAELVRPGSSVQLSCKASGYTFTSYWVDWVKQRPGQGLQWIGNIYPSDSETHYNQKFKDKATLTVDKSSSTAYMQLSSLTSEDSAVYYCARSYGYYGTWFAYWGQGTLVTVSA VL: DIVLTQSPASLAVSLGQRATISCRASESVDSSGNSFMHWYQQKPGQPPKLLIYRASNLESGIPARFSGSGSRTDFTLTINPVEADDVATYYCQQSNEDPWTFGGGTKLEIK | 0.8 | 1.4 | 7.6 | – | – | – | EC50 [8]: 0.276 nM
